From paper PMC3656769 come the findings set out here.

Conditions in all cases: glycan lost; control: wild type
Data set [1] is described as follows: cell surface biotinylation, Western, HEK 293.
A short description of data set [2]: surface biotinylation, FLAG IP, nonreducing Avidin-HRP blot, Hep3B.
A short description of data set [3]: nonreducing SDS-PAGE Western, Hep3B stable cells.
Data set [4] is described as follows: confocal immunofluorescence, nonpermeabilized HEK 293.
Data set [5] can be described thus: Western after 12 h holo-Tf, Hep3B transient and stable.

B1: Transferrin receptor 2 (hTfR2): 3-Mut (protein)
parent chain: MERLWGLFQRAQQLSPRSSQTVYQRVEGPRKGHLEEEEEDGEEGAETLAHFCPMELRGPEPLGSRPRQPNLIPWAAAGRRAAPYLVLTALLIFTGAFLLGYVAFRGSCQACGDSVLVVSEDVNYEPDLDFHQGRLYWSDLQAMFLQFLGEGRLEDTIRQTSLRERVAGSAGMAALTQDIRAALSRQKLDHVWTDTHYVGLQFPDPAHPNTLHWVDEAGKVGEQLPLEDPDVYCPYSAIGNVTGELVYAHYGRPEDLQDLRARGVDPVGRLLLVRVGVISFAQKVTNAQDFGAQGVLIYPEPADFSQDPPKPSLSSQQAVYGHVHLGTGDPYTPGFPSFNQTQFPPVASSGLPSIPAQPISADIASRLLRKLKGPVAPQEWQGSLLGSPYHLGPGPRLRLVVNNHRTSTPINNIFGCIEGRSEPDHYVVIGAQRDAWGPGAAKSAVGTAILLELVRTFSSMVSNGFRPRRSLLFISWDGGDFGSVGSTEWLEGYLSVLHLKAVVYVSLDNAVLGDDKFHAKTSPLLTSLIESVLKQVDSPNHSGQTLYEQVVFTNPSWDAEVIRPLPMDSSAYSFTAFVGVPAVEFSFMEDDQAYPFLHTKEDTYENLHKVLQGRLPAVAQAVAQLAGQLLIRLSHDRLLPLDFGRYGDVVLRHIGNLNEFSGDLKARGLTLQWVYSARGDYIRAAEKLRQEIYSSEERDERLTRMYNVRIMRVEFYFLSQYVSPADSPFRHIFMGRGDHTLGALLDHLRLLRSNSSGTPGATSSTGFQESRFRRQLALLTWTLQGAANALSGDVWNIDNNF
Consider B1, for which the localisation_or_trafficking entry in data set [1], in data set [2] and in data set [4] was “no change” throughout. The oligomerisation result in data set [3] is recorded as “decreases”.

B2: Transferrin receptor 2 (hTfR2): N339A (protein)
parent chain: B1 parent chain
As to B2, in data set [5], the “other: holo-Tf-induced stabilisation (protein level), fold_change” value (from here on “other … fold_change”) was “no change”.

B3: Transferrin receptor 2 (hTfR2): N240A (protein)
parent chain: B1 parent chain
Turning to B3, the “other … fold_change” value in data set [5] is listed as “no change”.

B4: Transferrin receptor 2 (hTfR2): N754A (protein)
parent chain: B1 parent chain
Regarding B4, the “other … fold_change” value in data set [5] is reported as “no change”.
